This experiment deals with vinculin (UniProt P18206). Briefly: FLAG IP, LC-MS/MS spectral counting. Conditions: reference: FLAG-EZH2 wild type; sites T367.

As for “EZH2 (from UniProt Q15910) FLAG-EZH2 T367A”, the “binding against the reference” value is “weaker”.

Source of the values: paper PMC6051995.
